# T1: AlDHPyr1147 (Pyrobaculum ferrireducens, UniProt G7VCG0)
# T1 construct: gene P186_1147; homotetramer
# T1 sequence (G7VCG0 1-491): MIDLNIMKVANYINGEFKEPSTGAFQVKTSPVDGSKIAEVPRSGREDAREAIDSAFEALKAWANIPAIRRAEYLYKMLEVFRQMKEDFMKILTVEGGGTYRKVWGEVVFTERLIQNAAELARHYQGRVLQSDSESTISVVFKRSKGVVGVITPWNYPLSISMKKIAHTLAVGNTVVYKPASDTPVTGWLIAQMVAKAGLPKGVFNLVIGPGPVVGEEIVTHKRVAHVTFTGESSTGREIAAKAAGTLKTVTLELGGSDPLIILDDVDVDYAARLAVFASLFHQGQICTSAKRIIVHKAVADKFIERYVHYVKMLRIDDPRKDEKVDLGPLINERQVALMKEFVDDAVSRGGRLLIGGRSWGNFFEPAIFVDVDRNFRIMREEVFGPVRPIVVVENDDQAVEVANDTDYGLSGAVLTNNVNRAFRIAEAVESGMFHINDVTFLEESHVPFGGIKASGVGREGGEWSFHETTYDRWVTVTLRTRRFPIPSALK
# B1: AlDHPyr1147 (Pyrobaculum ferrireducens) (protein)
# chain: T1 sequence (G7VCG0 1-491)
# notes: homotetramer
# How the values were obtained:
# AlDHPyr1147 [1] = biological target: T1, AlDHPyr1147; test: spectrophotometric NADPH formation at […] nm; assay type: biochemical; conditions: 0.084 μM enzyme, 0.3 mM NADP+, 9 mM isobutyraldehyde, pH 8.8, 60 °C
# AlDHPyr1147 [2] = biological target: T1, AlDHPyr1147; test: spectrofluorimetric titration of apo form; assay type: binding
# Source text: spectrofluorimetric titration of apo form on AlDHPyr1147 | spectrofluorimetric titration of the apo form of AlDHPyr1147 with NADP+
# [3] = biological target: NADP-dependent aldehyde dehydrogenase AlDHPyr1147 from archaeon Pyrobaculum sp.1860 (Pyrobaculum sp.1860); test: SEC; gel filtration of the apo form (coenzyme removed by heating at 85°C for 10-15 min), at room temperature
# [4] = biological target: NADP-dependent aldehyde dehydrogenase AlDHPyr1147 from archaeon Pyrobaculum sp.1860 (Pyrobaculum sp.1860); test: SEC; gel filtration of AlDHPyr1147 as isolated (with bound coenzyme); analytical column 10/300 GL, 50 mM sodium pyrophosphate pH 8.8, 100 mM NaCl, 22°C
# [5] = biological target: NADP-dependent aldehyde dehydrogenase AlDHPyr1147 from archaeon Pyrobaculum sp.1860 (Pyrobaculum sp.1860); test: crystal structure; apo form, three binary complexes with coenzyme (Holo-1, Holo-2, Holo-3) and ternary complex with NADP+ and isobutyraldehyde; space group P2(1)2(1)2, eight subunits (two tetramers) per asymmetric unit
# purified protein [6] = substrate: CC(C)C=O; test: purified protein; conditions: 0.3 mM NADP+, 50 mM sodium pyrophosphate pH 8.8, 100 mM NaCl, 60 °C
# purified protein [7] = substrate: O=C[C@H](O)CO; test: purified protein; conditions: 0.3 mM NADP+, 50 mM sodium pyrophosphate pH 8.8, 100 mM NaCl, 60 °C
# purified protein [8] = substrate: NC(=O)c1ccc[n+]([C@@H]2O[C@H](COP(=O)(O)OP(=O)(O)OC[C@H]3O[C@@H](n4cnc5c(N)ncnc54)[C@H](OP(=O)(O)O)[C@@H]3O)[C@@H](O)[C@H]2O)c1; test: purified protein; assay type: biochemical, Pyrobaculum ferrireducens; conditions: 60 °C, isobutyraldehyde oxidation, standard assay, 50 mM sodium pyrophosphate pH 8.8, 100 mM NaCl, varied: cofactor
# purified protein [9] = substrate: CCC=O; test: purified protein; assay type: biochemical, Pyrobaculum ferrireducens; conditions: 0.3 mM NADP+, 50 mM sodium pyrophosphate pH 8.8, 100 mM NaCl, 60 °C
molecule,measurement,setting,value
NC(=O)C1=CN([C@@H]2O[C@H](COP(=O)(O)OP(=O)(O)OC[C@H]3O[C@@H](n4cnc5c(N)ncnc54)[C@H](OP(=O)(O)O)[C@@H]3O)[C@@H](O)[C@H]2O)C=CC1 [NADPH],% decrease in activity at 0.08 mM,AlDHPyr1147 [1],20%
NC(=O)c1ccc[n+]([C@@H]2O[C@H](COP(=O)(O)OP(=O)(O)OC[C@H]3O[C@@H](n4cnc5c(N)ncnc54)[C@H](OP(=O)(O)O)[C@@H]3O)[C@@H](O)[C@H]2O)c1 [NADP+],Kd,AlDHPyr1147 [2],600 ± 80 nM
NADP-dependent aldehyde dehydrogenase AlDHPyr1147 from archaeon Pyrobaculum sp.1860 (enzyme),stoichiometry N,[3],4
same,stoichiometry N,[4],4
same,stoichiometry N,[5],4
B1,Km,purified protein [6],0.020 ± 0.003 M
same,kcat,purified protein [6],4.1 s⁻¹
same,kcat/Km,purified protein [6],200 M⁻¹ s⁻¹
same,Km,purified protein [7],0.015 ± 0.006 M
same,kcat,purified protein [7],1.2 s⁻¹
same,kcat/Km,purified protein [7],80 M⁻¹ s⁻¹
same,Km,purified protein [8],20.9 ± 0.1 µM
same,Km,purified protein [9],0.021 ± 0.0025 M
same,kcat,purified protein [9],2.9 ± 0.16 s⁻¹
same,kcat/Km,purified protein [9],140 ± 30 M⁻¹ s⁻¹

# From PMC5121451, “NADP-Dependent Aldehyde Dehydrogenase from Archaeon Pyrobaculum sp.1860: Structural and Functional Features” (Archaea, 2016)
